Consider 27 molecules from patent publication US20120058118A1 (Boehringer Ingelheim, published 2012).

For assay [1], the target named is T1, human A-beta(1-40) peptide, monomeric (BAM) (human, biotin at the C-terminus in capture ELISA, SPR and TR-FRET; not biotinylated where coated directly (Example 7)).
T1 construct: synthetic peptide (Anaspec), TFA/HFIP treated to give monomer; also called monomeric A-beta
The assay is described as follows: TR-FRET competition, mean IC50.

Assay [2] deals with T1, human A-beta(1-40) peptide, monomeric …. In words: TR-FRET competition; labelled competitor not given.

B1: ABII009 (VHH)
VHH: EVQLLESGGGLVLPGGSLRLSCVHSGPTFRTDTMGWFRQAPGKGREFVAAVTWNSGRINYADSVKGRFTVSRDNTKNAAYLQMSGLKDEDTAVYYCTAHRFVVGGNRVEDWRYWGQGTLVTVSS
notes: humanized variant of ABII002
Turning to B1, the IC50 in assay [1] and in assay [2] was 1.7 nM each time.

B2: ABII026 (VHH)
VHH: EVQLLESGGGLVQPGGSLRLSCAHSGPTFRTDTMGWFRQAPGKGREFVAAVTWNSGRINYADSVKGRFTISRDNSKNTAYLQMNSLRPEDTAVYYCAAHRFVVGGNRVEDWRYWGQGTLVTVSS
notes: humanized variant of ABII002
As for B2, the IC50 in assay [1] and in assay [2] was 5.1 nM each time.

B3: ABII030 (VHH)
VHH: EVQLLESGGGLVQPGGSLRLSCVHSGPTFRTDTMGWFRQAPGKGREFVAAVTWNSGRINYADSVKGRFTISRDNSKNAVYLQMNSLRPEDTAVYYCAAHRFVVGGNRVEDWRYWGQGTLVTVSS
notes: humanized variant of ABII002
For the molecule B3, the concentration for half-maximal inhibition (IC50) in assay [1] and in assay [2] was 12 nM each time.

B4: ABII034 (VHH)
VHH: EVQLLESGGGLVQPGGSLRLSCVHSGPTFRTDTMGWFRQAPGKGREFVAAVTWNSGRINYADSVKGRFTISRDNSKNTVYLQMSSLRPEDTAVYYCAAHRFVVGGNRVEDWRYWGQGTLVTVSS
notes: humanized variant of ABII002
For B4, the 50% inhibitory concentration (IC50) in assay [1] and in assay [2] was 10 nM each time.

B5: ABII022 (VHH)
VHH: EVQLLESGGGLVQPGGSLRLSCAHSGPTFRTDTMGWFRQAPGKGREFVAAVTWNSGRINYADSVKGRFTISRDNSKNAVYLQMSSLRPEDTAVYYCAAHRFVVGGNRVEDWRYWGQGTLVTVSS
notes: humanized variant of ABII002
Regarding B5, the IC50 in assay [1] and in assay [2] was 16 nM each time.

B6: ABII027 (VHH)
VHH: EVQLLESGGGLVQPGGSLRLSCAHSGPTFRTDTMGWFRQAPGKGREFVAAVTWNSGRINYADSVKGRFTISRDNSKNTAYLQMSSLRPEDTAVYYCAAHRFVVGGNRVEDWRYWGQGTLVTVSS
notes: humanized variant of ABII002
In the case of B6, the half-maximal inhibitory concentration (IC50) in assay [1] and in assay [2] was 4.4 nM each time.

B7: ABII021 (VHH)
VHH: EVQLLESGGGLVQPGGSLRLSCAHSGPTFRTDTMGWFRQAPGKGREFVAAVTWNSGRINYADSVKGRFTISRDNSKNAVYLQMNSLRPEDTAVYYCAAHRFVVGGNRVEDWRYWGQGTLVTVSS
notes: humanized variant of ABII002
With B7, the half-inhibitory concentration (IC50) in assay [1] and in assay [2] was 24 nM in each case.

B8: ABII031 (VHH)
VHH: EVQLLESGGGLVQPGGSLRLSCVHSGPTFRTDTMGWFRQAPGKGREFVAAVTWNSGRINYADSVKGRFTISRDNSKNAVYLQMSSLRPEDTAVYYCAAHRFVVGGNRVEDWRYWGQGTLVTVSS
notes: humanized variant of ABII002
As for B8, the IC50 in assay [1] and in assay [2] was 13 nM each time.

B9: ABII023 (VHH)
VHH: EVQLLESGGGLVQPGGSLRLSCAHSGPTFRTDTMGWFRQAPGKGREFVAAVTWNSGRINYADSVKGRFTISRDNSKNAAYLQMNSLRPEDTAVYYCAAHRFVVGGNRVEDWRYWGQGTLVTVSS
notes: humanized variant of ABII002
Regarding B9, the IC50 in assay [1] and in assay [2] was 5.8 nM each time.

B10: ABII036 (VHH)
VHH: EVQLLESGGGLVQPGGSLRLSCVHSGPTFRTDTMGWFRQAPGKGREFVAAVTWNSGRINYADSVKGRFTISRDNSKNTAYLQMSSLRPEDTAVYYCAAHRFVVGGNRVEDWRYWGQGTLVTVSS
notes: humanized variant of ABII002
As to B10, the concentration for half-maximal inhibition (IC50) in assay [1] and in assay [2] was 3.5 nM in each case.

B11: ABII025 (VHH)
VHH: EVQLLESGGGLVQPGGSLRLSCAHSGPTFRTDTMGWFRQAPGKGREFVAAVTWNSGRINYADSVKGRFTISRDNSKNTVYLQMSSLRPEDTAVYYCAAHRFVVGGNRVEDWRYWGQGTLVTVSS
notes: humanized variant of ABII002
For the molecule B11, the IC50 in assay [1] and in assay [2] was 18 nM throughout.

B12: ABII029 (VHH)
VHH: EVQLLESGGGLVQPGGSLRLSCVHSGPTFRTDTMGWFRQAPGKGREFVAAVTWNSGRINYADSVKGRFTISRDNSKNTLYLQMNSLRPEDTAVYYCAAHRFVVGGNRVEDWRYWGQGTLVTVSS
notes: humanized variant of ABII002
In the case of B12, the half-maximal inhibitory concentration (IC50) in assay [1] and in assay [2] was 89 nM each time.

B13: ABII032 (VHH)
VHH: EVQLLESGGGLVQPGGSLRLSCVHSGPTFRTDTMGWFRQAPGKGREFVAAVTWNSGRINYADSVKGRFTISRDNSKNAAYLQMNSLRPEDTAVYYCAAHRFVVGGNRVEDWRYWGQGTLVTVSS
notes: humanized variant of ABII002
B13: the half-maximal inhibitory concentration (IC50) in assay [1] and in assay [2] was 4.9 nM each time.

B14: ABII033 (VHH)
VHH: EVQLLESGGGLVQPGGSLRLSCVHSGPTFRTDTMGWFRQAPGKGREFVAAVTWNSGRINYADSVKGRFTISRDNSKNAAYLQMSSLRPEDTAVYYCAAHRFVVGGNRVEDWRYWGQGTLVTVSS
notes: humanized variant of ABII002
With B14, the IC50 in assay [1] and in assay [2] was 4 nM in each case.

B15: ABII028 (VHH)
VHH: EVQLLESGGGLVQPGGSLRLSCVHSGPTFRTDTMGWFRQAPGKGREFVAAVTWNSGRINYADSVKGRFTISRDNSKNTVYLQMNSLRPEDTAVYYCAAHRFVVGGNRVEDWRYWGQGTLVTVSS
notes: humanized variant of ABII002
As for B15, the half-inhibitory concentration (IC50) in assay [1] and in assay [2] was 11 nM throughout.

B16: ABII024 (VHH)
VHH: EVQLLESGGGLVQPGGSLRLSCAHSGPTFRTDTMGWFRQAPGKGREFVAAVTWNSGRINYADSVKGRFTISRDNSKNAAYLQMSSLRPEDTAVYYCAAHRFVVGGNRVEDWRYWGQGTLVTVSS
notes: humanized variant of ABII002
Turning to B16, the IC50 in assay [1] and in assay [2] was 6 nM in each case.

B17: ABII015 (VHH)
VHH: EVQLLESGGGLVLPGGSLRLSCVHSGPTFRTDTMGWFRQAPGKGREFVAAVTWNSGRINYADSVKGRFTVSRDNTRNAAYLQMSGLKAEDTAVYYCTAHRFVVGGNRVEDWRYWGQGTLVTVSS
notes: humanized variant of ABII002
Regarding B17, the IC50 in assay [1] and in assay [2] was 1.8 nM in each case.

B18: ABII018 (VHH)
VHH: EVQLLESGGGLVQPGGSLRLSCVHSGPTFRTDTMGWFRQAPGKGREFVAAVTWNSGRINYADSVKGRFTVSRDNTRNAAYLQMSGLKPEDTAVYYCTAHRFVVGGNRVEDWRYWGQGTLVTVSS
notes: humanized variant of ABII002
On to B18, for which the IC50 in assay [1] and in assay [2] was 3.2 nM throughout.

B19: ABII017 (VHH)
VHH: EVQLLESGGGLVLPGGSLRLSCVHSGPTFRTDTMGWFRQAPGKGREFVAAVTWNSGRINYADSVKGRFTVSRDNTRNAAYLQMSGLKDEDTAVYYCAAHRFVVGGNRVEDWRYWGQGTLVTVSS
notes: humanized variant of ABII002
Turning to B19, the 50% inhibitory concentration (IC50) in assay [1] and in assay [2] was 2.4 nM each time.

B20: ABII010 (VHH)
VHH: EVQLLESGGGLVLPGGSLRLSCVHSGPTFRTDTMGWFRQAPGKGREFVAAVTWNSGRINYADSVKGRFTVSRDNTRNTAYLQMSGLKDEDTAVYYCTAHRFVVGGNRVEDWRYWGQGTLVTVSS
notes: humanized variant of ABII002
As to B20, the IC50 in assay [1] and in assay [2] was 1.9 nM each time.

B21: ABII014 (VHH)
VHH: EVQLLESGGGLVLPGGSLRLSCVHSGPTFRTDTMGWFRQAPGKGREFVAAVTWNSGRINYADSVKGRFTVSRDNTRNAAYLQMSGLRDEDTAVYYCTAHRFVVGGNRVEDWRYWGQGTLVTVSS
notes: humanized variant of ABII002
Consider B21, for which the half-maximal inhibitory concentration (IC50) in assay [1] and in assay [2] was 1.3 nM each time.

B22: ABII013 (VHH)
VHH: EVQLLESGGGLVLPGGSLRLSCVHSGPTFRTDTMGWFRQAPGKGREFVAAVTWNSGRINYADSVKGRFTVSRDNTRNAAYLQMSSLKDEDTAVYYCTAHRFVVGGNRVEDWRYWGQGTLVTVSS
notes: humanized variant of ABII002
On to B22, for which the 50% inhibitory concentration (IC50) in assay [1] and in assay [2] was 1.6 nM throughout.

B23: ABII011 (VHH)
VHH: EVQLLESGGGLVLPGGSLRLSCVHSGPTFRTDTMGWFRQAPGKGREFVAAVTWNSGRINYADSVKGRFTVSRDNTRNALYLQMSGLKDEDTAVYYCTAHRFVVGGNRVEDWRYWGQGTLVTVSS
notes: humanized variant of ABII002
On to B23, for which the concentration for half-maximal inhibition (IC50) in assay [1] and in assay [2] was 24 nM in each case.

B24: ABII016 (VHH)
VHH: EVQLLESGGGLVLPGGSLRLSCVHSGPTFRTDTMGWFRQAPGKGREFVAAVTWNSGRINYADSVKGRFTVSRDNTRNAAYLQMSGLKPEDTAVYYCTAHRFVVGGNRVEDWRYWGQGTLVTVSS
notes: humanized variant of ABII002
Take B24: the IC50 in assay [1] and in assay [2] was 2.4 nM throughout.

B25: ABII012 (VHH)
VHH: EVQLLESGGGLVLPGGSLRLSCVHSGPTFRTDTMGWFRQAPGKGREFVAAVTWNSGRINYADSVKGRFTVSRDNTRNAAYLQMNGLKDEDTAVYYCTAHRFVVGGNRVEDWRYWGQGTLVTVSS
notes: humanized variant of ABII002
As for B25, the IC50 in assay [1] and in assay [2] was 1.5 nM throughout.

B26: ABII019 (VHH)
VHH: EVQLLESGGGLVQPGGSLRLSCAHSGPTFRTDTMGWFRQAPGKGREFVAAVTWNSGRINYADSVKGRFTISRDNSKNTVYLQMNSLRPEDTAVYYCAAHRFVVGGNRVEDWRYWGQGTLVTVSS
notes: humanized variant of ABII002
As to B26, the concentration for half-maximal inhibition (IC50) in assay [1] and in assay [2] was 14 nM in each case.

B27: ABII020 (VHH)
VHH: EVQLLESGGGLVQPGGSLRLSCAHSGPTFRTDTMGWFRQAPGKGREFVAAVTWNSGRINYADSVKGRFTISRDNSKNTLYLQMNSLRPEDTAVYYCAAHRFVVGGNRVEDWRYWGQGTLVTVSS
notes: humanized variant of ABII002
Turning to B27, the IC50 in assay [1] and in assay [2] was 110 nM each time.
